Assay [1] has as its target DENV-1 VLP mutant E311K (Dengue virus serotype 1 strain (56)BC94/95; C-terminal 20% Japanese encephalitis virus).
Assay [2] concerns the target DENV-1 VLP mutant G106R (Dengue virus serotype 1 strain (56)BC94/95; C-terminal 20% Japanese encephalitis virus).
Assay [3] concerns the target DENV-1 VLP mutant G106RL107D (Dengue virus serotype 1 strain (56)BC94/95; C-terminal 20% Japanese encephalitis virus).
In assay [4] the target is DENV-1 VLP mutant G106RL107DK310DE311KP364Q (pVD1-CRR VLP antigen) (Dengue virus serotype 1 strain (56)BC94/95; C-terminal 20% Japanese encephalitis virus).
Assay [5] has as its target DENV-1 VLP mutant K310D (Dengue virus serotype 1 strain (56)BC94/95; C-terminal 20% Japanese encephalitis virus).
The target in assay [6] is DENV-1 VLP mutant K310DE311KP364Q (Dengue virus serotype 1 strain (56)BC94/95; C-terminal 20% Japanese encephalitis virus).
The target in assay [7] is DENV-1 VLP mutant L107D (Dengue virus serotype 1 strain (56)BC94/95; C-terminal 20% Japanese encephalitis virus).
Assay [8] deals with DENV-1 VLP mutant P364Q (Dengue virus serotype 1 strain (56)BC94/95; C-terminal 20% Japanese encephalitis virus).
Assay [9] has as its target DENV-1 virus (strain 56BC94/95) (Dengue virus serotype 1 strain 56BC94/95). The assay can be described thus: cell-based or functional assay.
In assay [10] the target is DENV-2 virus (strain 16681) (Dengue virus serotype 2 strain 16681) (UniProt P29990). Nature of the assay: cell-based or functional assay.
For assay [11], the target named is DENV-3 virus (strain 116RC1396) (Dengue virus serotype 3 strain 116RC1396). Nature of the assay: cell-based or functional assay.
For assay [12], the target named is DENV-4 virus (strain 130) (Dengue virus serotype 4 strain 130). Nature of the assay: cell-based or functional assay.

A value given as a limit tells only on which side of the number the result lay.

With MAb 1A1D-2 (antibody), the percent of remaining reactivity compared to WT in [1] was 50%; in assay [2], 25%; in assay [3], 100%; in assay [4], less than 0.1%; in assay [5], 1.5%; in [6], less than 0.8%. Further, the percent of remaining reactivity compared to WT in assay [7] and in [8] was 100% in each case. Besides, the Nt50 (µg/mL), FRµNT was 1.68 µg/mL in [9], 0.46 µg/mL in [10], 1.26 µg/mL in assay [11] and greater than 20 µg/mL in assay [12].

Take MAb 3H5 (antibody): the values for the Nt50 (µg/mL), FRµNT in assay [9] and in [10] were greater than 20 µg/mL and 0.15 µg/mL, respectively.

With MAb 4G2 (antibody), the percent of remaining reactivity compared to WT is 100% in assay [1]; less than 0.1% in assay [2]; less than 0.1% in assay [3]; less than 0.1% in assay [4]; less than 0.1% in assay [5]; 100% in assay [6]. Also, the percent of remaining reactivity compared to WT in assay [7] and in assay [8] was less than 0.1% in each case.

In the case of MAb 6B6C-1 (antibody), the percent of remaining reactivity compared to WT in assay [1] is 100%; in [2], 12.5%; in assay [3] it was 0.8%; in assay [4], 3%; in assay [5], 100%; in assay [6], 50%. For the same substance, the percent of remaining reactivity compared to WT in assay [7] came to 50%; in assay [8], 100%.

(Values after patent US20140286983A1.)
